From paper PMC3397886 come the findings set out here.

The target of assay [1] is V1 (A-His8/ΔCys, A-C255A/A-S232A/A-T235S/F-S54C) labelled with Cy3-maleimide on subunit F (Thermus thermophilus) (UniProt Q56403). Briefly: FRET or BRET.
Assay [2] deals with A3B3D (A-His8/ΔCys, A-C255A/A-S232A/A-T235S, D/E48C) labelled with Cy3-maleimide on subunit D (Thermus thermophilus) (UniProt Q56403). Briefly: FRET or BRET.

pKd: −log10 of the molar value.

A word on the pKd: it is −log10 of the Kd, conventionally taken in molar units. On to “Vo (C-S105C/C-C268S/C-C323S) labelled with Cy5-maleimide on subunit C (from UniProt P74902 1-323; P74901 1-188) (complex)”, for which the pKd in assay [1] was 9.59; in assay [2], 8.96.
